Assay results: patent US20090092971

Target: active RhoA, P61586
Sequence (P61586 1-190): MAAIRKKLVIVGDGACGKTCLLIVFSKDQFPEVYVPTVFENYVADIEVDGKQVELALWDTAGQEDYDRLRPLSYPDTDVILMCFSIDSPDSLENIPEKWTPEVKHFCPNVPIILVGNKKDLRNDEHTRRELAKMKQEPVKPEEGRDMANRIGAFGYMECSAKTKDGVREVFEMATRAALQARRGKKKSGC

B1: GEF-H1 (Rho guanine nucleotide exchange factor H1) (protein)
chain: MKEAKDARYTNGHLFTTISVSGMTMCYACNKSITAKEALICPTCNVTIHNRCKDTLANCTKVKQKQQKAALLKNNTALQSVSLRSKTTIRERPSSAIYPSDSFRQSLLGSRRGRSSLSLAKSVSTTNIAGHFNDESPLGLRRILSQSTDSLNMRNRTLSVESLIDEEVIYSELMSDFEMDEKDFAADSWSLAVDSSFLQQHKKEVMKQQDVIYELIQTELHHVRTLKIMTRLFRTGMLEELHLEPGVVQGLFPCVDELSDIHTRFLSQLLERRRQALCPGSTRNFVIHRLGDLLISQFSGPSAEQMCKTYSEFCSRHSKALKLYKELYARDKRFQQFIRKVTRPAVLKRHGVQECILLVTQRITKYPLLISRILQHSHGIEEERQDLTTALGLVKELLSNVDEGIYQLEKGARLQEIYNRMDPRAQTPVPGKGPFGREELLRRKLIHDGCLLWKTATGRFKDVLVLLMTDVLVFLQEKDQKYIFPTLDKPSVVSLQNLIVRDIANQEKGMFLISAAPPEMYEVHTASRDDRSTWIRVIQQSVRTCPSREDFPLIETEDEAYLRRIKMELQQKDRALVELLREKVGLFAEMTHFQAEEDGGSGMALPTLPRGLFRSESLESPRGERLLQDAIREVEGLKDLLVGPGVELLLTPREPALPLEPDSGGNTSPGVTANGEARTFNGSIELCRADSDSSQRDRNGNQLRSPQEEALQRLVNLYGLLHGLQAAVAQQDTLMEARFPEGPERREKLCRANSRDGEAGRAGAAPVAPEKQATELALLQRQHALLQEELRRCRRLGEERATEAGSLEARLRESEQARALLEREAEEARRQLAALGQTEPLPAEAPWARRPVDPRRRSLPAGDALYLSFNPPQPSRGTDRLDLPVTTRSVHRNFEDRERQELGSPEERLQDSSDPDTGSEEEGSSRLSPPHSPRDFTRMQDIPEETESRDGEAVASES
Q: Which “RhoA activity (active RhoA pulled down with GST-Rhotekin-RBD, western blot)” value does the source give for B1 here?
A: The value was “the RhoA activity increased by at least 5 times”.
